Measured values as given in paper PMC7026398, “Structural and functional insight into the effect of AFF4 dimerization on activation of HIV-1 proviral transcription” (Cell Discovery, 2020).

Target: Flag-AFF1 F1063A+Y1145A+V1146A+V1152A, full length (UniProt P51825)

B1: Flag-AFF1 F1063A+Y1145A+V1146A+V1152A, full length (natural protein)
chain: MAAQSSLYNDDRNLLRIREKERRNQEAHQEKEAFPEKIPLFGEPYKTAKGDELSSRIQNMLGNYEEVKEFLSTKSHTHRLDASENRLGKPKYPLIPDKGSSIPSSSFHTSVHHQSIHTPASGPLSVGNISHNPKMAQPRTEPMPSLHAKSCGPPDSQHLTQDRLGQEGFGSSHHKKGDRRADGDHCASVTDSAPERELSPLISLPSPVPPLSPIHSNQQTLPRTQGSSKVHGSSNNSKGYCPAKSPKDLAVKVHDKETPQDSLVAPAQPPSQTFPPPSLPSKSVAMQQKPTAYVRPMDGQDQAPSESPELKPLPEDYRQQTFEKTDLKVPAKAKLTKLKMPSQSVEQTYSNEVHCVEEILKEMTHSWPPPLTAIHTPSTAEPSKFPFPTKDSQHVSSVTQNQKQYDTSSKTHSNSQQGTSSMLEDDLQLSDSEDSDSEQTPEKPPSSSAPPSAPQSLPEPVASAHSSSAESESTSDSDSSSDSESESSSSDSEENEPLETPAPEPEPPTTNKWQLDNWLTKVSQPAAPPEGPRSTEPPRRHPESKGSSDSATSQEHSESKDPPPKSSSKAPRAPPEAPHPGKRSCQKSPAQQEPPQRQTVGTKQPKKPVKASARAGSRTSLQGEREPGLLPYGSRDQTSKDKPKVKTKGRPRAAASNEPKPAVPPSSEKKKHKSSLPAPSKALSGPEPAKDNVEDRTPEHFALVPLTESQGPPHSGSGSRTSGCRQAVVVQEDSRKDRLPLPLRDTKLLSPLRDTPPPQSLMVKITLDLLSRIPQPPGKGSRQRKAEDKQPPAGKKHSSEKRSSDSSSKLAKKRKGEAERDCDNKKIRLEKEIKSQSSSSSSSHKESSKTKPSRPSSQSSKKEMLPPPPVSSSSQKPAKPALKRSRREADTCGQDPPKSASSTKSNHKDSSIPKQRRVEGKGSRSSSEHKGSSGDTANPFPVPSLPNGNSKPGKPQVKFDKQQADLHMREAKKMKQKAELMTDRVGKAFKYLEAVLSFIECGIATESESQSSKSAYSVYSETVDLIKFIMSLKSFSDATAPTQEKIFAVLCMRCQSILNMAMARCKKDIAIKYSRTLNKHFESSSKVAQAPSPCIASTGTPSPLSPMPSPASSVGSQSSAGSVGSSGVAATISTPVTIQNMTSSAATITSHALTAFDLWEQAEALTRKNKEFFARLSTNVCTLALNSSLVDLVHYTRQGFQQLQELTKTP
HIV-LTR-luciferase reporter in NH1 cells, overexpressed Flag-AFF1 mutant against wild-type AFF1 (fold less than wild-type AFF1): 1
